Measurements reported in US20200390870A1 (MINERVA BIOTECHNOLOGIES, published 2020).

B7: PSMGFR minus 10 amino acids from the C-terminus (peptide)
peptide: GTINVHDVETQFNQYKTEAASRYNLTISDVSVSDV
notes: also called C-10; C-10 PSMGFR

Key:
[1] = target: MUC1-41TR (MUC1 with an extracellular domain truncated after 41 tandem repeats) (Homo sapiens (Human)) (UniProt P15941); assay: FACS on HCT-MUC1-41TR cells
[2] = target: T1, PSMGFR peptide (Primary Sequence of the MUC1 Growth Factor Receptor); assay: ELISA, surface coated with PSMGFR peptide or a control peptide
T1 construct: synthetic peptide, immobilized on ELISA plates or attached to beads; also called MUC1* peptide; synthetic MUC1* extra cellular domain peptide
T1 peptide: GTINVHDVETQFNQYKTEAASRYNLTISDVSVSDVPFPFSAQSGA
Method: Humanized MN-C2 scFv is then incubated with the surface, washed and detected according to standard methods.

[3] = target: T1, PSMGFR peptide (Primary Sequence of the …); assay: ELISA on PSMGFR peptide
Source text: FIGS. 21A-21B show an ELISA graph of several anti-MUC1* scFv-Fc fusion proteins wherein the Fc region has been eliminated or mutated. Shown are hu MN-E6 scFv-Fc-wt, hu MN-E6 scFv-Fc-Y407R, hu MN-E6 scFv-Fc-hingeless, and hu MN-E6 scFv-Fc-Y407R-hingeless. All mutants bind to the PSMGFR peptide of the MUC1* extracellular domain (A). An ELISA graph of several anti-MUC1* scFv-Fc fusion proteins wherein the Fc region is either wild type or mutated. Shown are hu MN-E6 scFv-Fc-wt, hu MN-E6 scFv-Fc-hingeless, and hu MN-C3 scFv-Fc is shown (B). All bind to the PSMGFR peptide of the MUC1* extracellular domain.

[4] = target: T2, PSMGFR minus 10 amino acids from the N-terminus; assay: selection criteria, FIGS. 3A-3C named
T2 construct: also called N-10; N-10 PSMGFR
T2 peptide: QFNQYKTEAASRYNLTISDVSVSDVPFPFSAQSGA
Method: (§1) FIGS. 3A-3C show results of competitive ELISA assays. The PSMGFR MUC1* peptide is immobilized on the plate and dimeric NM23-H1, aka NME1, is added either alone or after the MN-E6 antibody has been added (A). The same experiment was performed wherein NM23-H7, NME7-AB, is added alone or after MN-E6 has been added (B). […] In a similar experiment (C), PSMGFR or PSMGFR minus 10 amino acids from the N-terminus, aka N-10, is immobilized on the plate. Dimeric NM23-H1 is then added. Anti-MUC1* antibodies MN-E6, MN-C2, MN-C3 or MN-C8 are then tested for their ability to compete off the NM23-H1.

[5] = target: T1, PSMGFR peptide (Primary Sequence of the …); assay: competitive ELISA on immobilized PSMGFR or N-10 peptide
Method: as §1

[6] = target: B7; assay: ELISA on immobilized N-10 and C-10 peptides
[7] = target: T1, PSMGFR peptide (Primary Sequence of the …); assay: ELISA on immobilized PSMGFR, N-10 and C-10 peptides
Method: FIGS. 22A-22C show graphs of ELISAs wherein the assay plate surface was immobilized with either PSMGFR peptide, PSMGFR minus 10 amino acids from the N-terminus or minus 10 amino acids from the C-terminus. The MN-C3 antibody variants were then assayed for binding to the various MUC1* peptides. A) Purified mouse monoclonal MN-C3 antibody; B) Impure humanized MN-C3 antibody; and C) the humanized MN-C3 scFv-Fc. ELISAs show binding to the PSMGFR peptide as well as to certain deletion peptides.

NME7-AB = target: T3, NME7-AB (human, UniProt Q9Y5B8 92-376); assay: ELISA on immobilized peptide
T3 construct: also called NM23-H7
T3 sequence: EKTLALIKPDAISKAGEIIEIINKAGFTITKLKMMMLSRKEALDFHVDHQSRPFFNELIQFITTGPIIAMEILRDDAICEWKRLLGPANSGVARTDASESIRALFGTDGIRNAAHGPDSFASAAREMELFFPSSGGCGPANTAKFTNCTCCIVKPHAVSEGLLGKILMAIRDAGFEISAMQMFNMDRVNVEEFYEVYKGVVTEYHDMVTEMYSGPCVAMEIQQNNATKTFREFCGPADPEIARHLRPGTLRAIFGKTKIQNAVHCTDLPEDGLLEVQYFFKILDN

dimeric NME1 = target: T4, dimeric NME1 (human, UniProt P15531 1-152, limits assumed); assay: ELISA on immobilized peptide
T4 construct: used as a dimer; also called dimeric NM23-H1; NM23-H1 dimers

[8] = target: T5, MUC1-41TR (MUC1 with an extracellular domain truncated after 41 tandem repeats) (Homo sapiens (Human), UniProt P15941 24-1255); assay: CAR T co-culture, photographs; no T cell induced clustering
T5 construct: only minimally cleaved to MUC1*; also called HCT-MUC1-41TR; HCT-MUC1-18
Method: FIGS. 75A-75P show photographs of a CAR T co-culture assay in which the targeting antibody fragment of the CAR is huMNC2scFv wherein CAR44 has a CD8 transmembrane domain, followed by 41BB-3zeta and CAR50 has a CD4 transmembrane domain, followed by 41BB-3zeta. […] The HCT-MUC1-41TR cancer cells were also incubated with conditioned media from cells transfected with MMP9 or ADAM17 before co-culture with the CAR T cells. Conditioned media of the MMP9 or ADAM17 expressing cells were also incubated with APMA which is an activator of those cleavage enzymes. The images shown are an overlay of the 4× bright field image and the fluorescent image of the same showing cancer cells dyed with a red CMTMR lipophilic dye. FIGS. 75A, 75E, 75I, 75M show photographs of cells co-cultured with untransduced human T cells. FIGS. 75B, 75F, 75J, 75N show photographs of cells co-cultured with human T cells transduced with anti-MUC1* CAR44 at an MOI of 10. FIGS. 75C, 75G, 75K, 75O show photographs of cells co-cultured with human T cells transduced with anti-MUC1* CAR50 at an MOI of 10. FIGS. 75D, 75H, 75L, 75P show photographs of cells co-cultured with human T cells transduced with anti-MUC1* CAR44 at an MOI of 50, which increases transduction efficiency. […] There is no T cell induced clustering and the number of cancer cells has not decreased. […]

T5 sequence (P15941 other isoform, or with tags, fused parts or gaps limits assumed): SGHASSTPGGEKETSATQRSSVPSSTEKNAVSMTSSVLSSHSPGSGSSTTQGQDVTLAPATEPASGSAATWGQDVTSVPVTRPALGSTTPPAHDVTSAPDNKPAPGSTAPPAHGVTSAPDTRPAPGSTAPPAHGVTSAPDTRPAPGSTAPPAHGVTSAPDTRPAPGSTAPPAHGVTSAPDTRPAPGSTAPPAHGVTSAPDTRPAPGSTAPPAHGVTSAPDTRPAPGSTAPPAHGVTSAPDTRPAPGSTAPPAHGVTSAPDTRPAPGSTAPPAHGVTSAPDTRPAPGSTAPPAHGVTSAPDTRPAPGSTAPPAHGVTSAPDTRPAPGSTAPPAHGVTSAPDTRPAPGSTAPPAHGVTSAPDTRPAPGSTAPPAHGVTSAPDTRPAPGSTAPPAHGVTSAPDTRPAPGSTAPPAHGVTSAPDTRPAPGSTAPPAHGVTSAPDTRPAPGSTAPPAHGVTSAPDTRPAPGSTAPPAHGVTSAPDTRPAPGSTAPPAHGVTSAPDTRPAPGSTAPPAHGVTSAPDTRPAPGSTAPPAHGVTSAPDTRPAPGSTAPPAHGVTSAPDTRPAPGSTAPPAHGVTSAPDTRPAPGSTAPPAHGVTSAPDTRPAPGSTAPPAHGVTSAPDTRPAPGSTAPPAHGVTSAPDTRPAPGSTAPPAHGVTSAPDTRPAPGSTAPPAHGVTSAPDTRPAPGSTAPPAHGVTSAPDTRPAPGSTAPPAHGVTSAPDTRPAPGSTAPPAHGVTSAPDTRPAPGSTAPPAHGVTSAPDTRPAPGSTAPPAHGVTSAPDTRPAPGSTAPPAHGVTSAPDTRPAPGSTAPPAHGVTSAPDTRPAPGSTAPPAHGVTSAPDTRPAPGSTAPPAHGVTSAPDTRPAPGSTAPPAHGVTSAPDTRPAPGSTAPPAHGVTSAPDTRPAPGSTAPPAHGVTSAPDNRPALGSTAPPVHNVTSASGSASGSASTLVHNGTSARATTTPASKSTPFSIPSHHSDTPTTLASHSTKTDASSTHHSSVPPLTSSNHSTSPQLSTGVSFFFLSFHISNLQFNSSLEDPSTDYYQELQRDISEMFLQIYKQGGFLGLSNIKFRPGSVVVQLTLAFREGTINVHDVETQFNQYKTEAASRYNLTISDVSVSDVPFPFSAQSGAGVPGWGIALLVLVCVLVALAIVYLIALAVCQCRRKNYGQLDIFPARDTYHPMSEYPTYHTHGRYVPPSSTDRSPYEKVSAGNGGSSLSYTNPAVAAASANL
MUC1-41TR (MUC1 with an extracellular domain truncated after 41 tandem repeats) (Homo sapiens (Human)), sequence (P15941 other isoform, or with tags, fused parts or gaps limits assumed): as above
T4 sequence (P15531 whole entry): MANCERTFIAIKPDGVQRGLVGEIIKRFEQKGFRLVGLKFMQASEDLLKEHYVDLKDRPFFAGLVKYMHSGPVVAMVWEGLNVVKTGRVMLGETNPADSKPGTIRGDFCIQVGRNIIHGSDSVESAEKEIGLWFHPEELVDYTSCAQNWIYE

Question: For VU4H5 (antibody), which percent of cells positive [1] is on record?
Answer: 95%

B1: humanized MN-C2 scFv (scFv, V domains shown)
VH: EVQLVESGGGLVKPGGSLRLSCAASGFTFSGYAMSWVRQAPGKGLEWVSTISSGGTYIYYPDSVKGRFTISRDNAKNSLYLQMNSLRAEDTAVYYCARLGGDNYYEYFDVWGKGTTVTVSS
VL: DIVLTQSPASLAVSPGQRATITCRASKSVSTSGYSYMHWYQQKPGQPPKLLIYLASNLESGVPARFSGSGSGTDFTLTINPVEANDTANYYCQHSRELPFTFGGGTKVEIKR
notes: several humanized MN-C2 single chain proteins were generated; the one in the assays is not identified; also called huMN-C2 scFv; hMN-C2 scFv; not shown: 6x His tag, detected in the flow cytometry assay
Question: Which EC50 [2] does the source give for B1 here?
Answer: ~333 nM

B2: humanized MN-E6 scFv (scFv, V domains shown, not shown: small tags and cut ends)
VH: EVQLVESGGGLVKPGGSLRLSCAASGFTFSRYGMSWVRQAPGKRLEWVSTISGGGTYIYYPDSVKGRFTISRDNAKNTLYLQMNSLRAEDTAVYYCTRDNYGRNYDYGMDYWGQGTLVTVSS
VL: EIVLTQSPATLSLSPGERATLTCSATSSVSYIHWYQQRPGQSPRLLIYSTSNLASGIPARFSGSGSGSDYTLTISSLEPEDFAVYYCQQRSSSPFTFGSGTKVEIK
notes: several humanized MN-E6 single chain proteins were generated; the one in the assays is not identified; also called hu MN-E6 scFv
Question: Does B2 bind [3]?
Answer: binds

B3: mouse monoclonal antibody MN-E6 (antibody, V domains shown)
VH: EVKVVESGGDLVKPGGSLKLSCVVSGFTFSRYGMSWVRQTPGKRLEWVATISGGGTYIYYPDSVKGRFTISRDNAKNTLYLQMSSLKSEDTAMYHCTRDNYGRNYDYGMDYWGQGTSVTVSS
VL: QIVLTQSPAIMSASPGEEVTLTCSATSSVSYIHWFQQRPGTSPKLWIYSTSNLASGVPVRFSGSGYGTSYSLTISRMEAEDAATYYCQQRSSSPFTFGSGTKLEIK
notes: mouse monoclonal; also called Min-E6
Question: What does the source list for B3?
Answer: binding result [4]: binds; binding result [5]: binds

B4: mouse monoclonal antibody MN-C3 (antibody, V domains shown)
VH: QVQLQQSGPELVRPGVSVKISCKGSGYRFTDYAMNWVKQSHAKSLEWIGVISTFSGNTNFNQKFKGKATMTVDKSSSTAYMELARLTSEDSAMYYCARSDYYGPYFDYWGQGTTLTVSS
VL: DVLMTQTPLSLPVSLGDQASISCRSSQTIVHSNGNTYLEWYLQKPGQSPKLLIYKVSNRFSGVPDRFSGSGSGTDFTLKINRVEAEDLGVYYCFQGSHVPFTFGSGTKLEIK
notes: mouse monoclonal; also called Min-C3
Question: Does B4 bind [6]?
Answer: binds

Question: Does B4 bind [7]?
Answer: binds

B5: humanized MN-C3 antibody (antibody, V domains shown)
VH: QVQLVQSGAEVKKPGASVKVSCKASGYTFTDYAMNWVRQAPGQGLEWMGVISTFSGNTNFNQKFKGRVTMTTDTSTSTAYMELRSLRSDDTAVYYCARSDYYGPYFDYWGQGTTLTVSS
VL: DIVMTQTPLSLSVTPGQPASISCRSSQTIVHSNGNTYLEWYLQKPGQSPQLLIYKVSNRFSGVPDRFSGSGSGTDFTLKISRVEAEDVGVYYCFQGSHVPFTFGGGTKVEIKR
notes: tested impure; also called Impure humanized MN-C3 antibody
Question: Does B5 bind [7]?
Answer: binds

B6: mouse monoclonal antibody MN-C2 (antibody, V domains shown)
VH: EVQLEESGGGLVKPGGSLKLSCAASGFTFSGYAMSWVRQTPEKRLEWVATISSGGTYIYYPDSVKGRFTISRDNAKNTLYLQMSSLRSEDTAMYYCARLGGDNYYEYFDVWGAGTTVTVSS
VL: DIVITQSTASLGVSLGQRATISCRASKSVSTSGYSYMHWYQQRPGQPPKLLIYLASNLESGVPARFSGSGSGTDFTLNIHPVEEEDAATYYCQHSRELPFTFGGGTKLEIKR
notes: mouse monoclonal; also called Min-C2
Question: Does B6 bind [4]?
Answer: binds

Question: Does B6 bind [5]?
Answer: binds

Question: Does B7 bind (NME7-AB)?
Answer: no binding

Question: Does B7 bind (dimeric NME1)?
Answer: no binding

B8: CAR44 huMNC2-CD8-4-1BB-CD3z (other)
chain: EVQLVESGGGLVKPGGSLRLSCAASGFTFSGYAMSWVRQAPGKGLEWVSTISSGGTYIYYPDSVKGRFTISRDNAKNSLYLQMNSLRAEDTAVYYCARLGGDNYYEYFDVWGKGTTVTVSSGGGGSGGGGSGGGGSDIVLTQSPASLAVSPGQRATITCRASKSVSTSGYSYMHWYQQKPGQPPKLLIYLASNLESGVPARFSGSGSGTDFTLTINPVEANDTANYYCQHSRELPFTFGGGTKVEIKRTTTTPAPRPPTPAPTIASQPLSLRPEACRPAAGGAVHTRGLDFACDIYIWAPLAGTCGVLLLSLVITLYCKRGRKKLLYIFKQPFMRPVQTTQEEDGCSCRFPEEEEGGCELRVKFSRSADAPAYKQGQNQLYNELNLGRREEYDVLDKRRGRDPEMGGKPRRKNPQEGLYNELQKDKMAEAYSEIGMKGERRRGKGHDGLYQGLSTATKDTYDALHMQALPPR
notes: also called huMNC2-CAR44; huMNC2-scFv-CAR44
Question: Does B8 bind [8]?
Answer: no binding

B9: CAR50 (MNC2 scFv, CD4 transmembrane domain, 41BB-3zeta) (other)
chain: EVQLVESGGGLVKPGGSLRLSCAASGFTFSGYAMSWVRQAPGKGLEWVSTISSGGTYIYYPDSVKGRFTISRDNAKNSLYLQMNSLRAEDTAVYYCARLGGDNYYEYFDVWGKGTTVTVSSGGGGSGGGGSGGGGSDIVLTQSPASLAVSPGQRATITCRASKSVSTSGYSYMHWYQQKPGQPPKLLIYLASNLESGVPARFSGSGSGTDFTLTINPVEANDTANYYCQHSRELPFTFGGGTKVEIKRTSGQVLLESNIKVLPTWSTPVQPMALIVLGGVAGLLLFIGLGIFFKRGRKKLLYIFKQPFMRPVQTTQEEDGCSCRFPEEEEGGCELRVKFSRSADAPAYKQGQNQLYNELNLGRREEYDVLDKRRGRDPEMGGKPRRKNPQEGLYNELQKDKMAEAYSEIGMKGERRRGKGHDGLYQGLSTATKDTYDALHMQALPPR
notes: chimeric antigen receptor on transduced human T cells; also called huMNC2-CAR50; huMNC2-scFv-CAR50
Question: Does B9 bind [8]?
Answer: no binding
